According to the nanobody polyreactivity screen of Harvey et al. (2022):

Assay: yeast display, Sf9 membrane polyspecificity reagent, FACS + sequencing; frameworks hold sequencing errors
Outline: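 Using colony PCR, genes from sorted yeast display clones were amplified, then sequenced on MiSeq at 2 × 250 and filtered by CDR length. The clones had been stained with 10% biotinylated, detergent-solubilized Sf9 membrane reagent for 1 hour at 4 °C and sorted by FACS into low and high (top ~1%) gates on anti-HA and streptavidin fluorescence. Polyreactivity labels come from the gate of origin.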

Row | Sequence | polyreactivity (PSR sort gate)
1 | QVQLVESGGGLVQAGGSLRLSCAASGRIFYGYTMGWYRQAPGKERELVAAISWSGGSTSYADSVKGRFTISRDNAKNTVYLQMNSLKPEDTAVYYCDVRYPGYRLYWGYTYDYWGQGTQVTVSS | high polyreactivity
2 | QVQLVESGGGLVQAGGSLSLSCAASGSIFGFNAMGWYRQAPGKERELVAAINNGGSTNYADSVKGRFTISRDNAKNTVYLQMNSLNPEDTSVYYCAAVGGWRWSNQDYRYPYYYWGQGTQVTVSS | high polyreactivity
3 | QVQLVESGGGLVQAGGSLRLSCAASGSIFKYNTMGWYIQAPGKERELVATISGGGRTYYADSVKGRFTISRDNAKNTVYLQMNSLKPEDTAVYYCAARKRGTFTYDYWGQGTQVTVSS | high polyreactivity
4 | QVQLVESGGGLVQAGGSLRLSCAASGSTFVWNAMGWYRQAPGQERELVAAITWSGGSTYYADSVKGRFTISRDNAKNTVYLQMNSLIPEDTAVYYGNAGPVVRRWDAVGYDYWGQGTQVTVSS | low polyreactivity
5 | QVQLVESGGGLVQAGGSLRLSCAASGSTFRWNAMGWYTPAPGKERELVAAITSSGSTYYADSVKGRFTISRDNAKNTVYLQMNSLNPEDTAVYSCAGRANGYWNTYELDYWGQGIQVTVSS | low polyreactivity
6 | QVQLVESGGGLVQAGGSLRLSCAASGNTFDYYDMGWYSQAPGKERELVAAGSGGSTYYADSVKGRFTISRDNAKHTVYLQMNSLKPEDTAVYYCAARDRYYFGGMYYWGQGTQVTVSS | low polyreactivity
7 | QVQLVESGGGLVQAGRTLRLSCAASGSTFSVYGMVWYRQAPGKERELVAINIIGGSTYYADSVKGRFTISRDNAKYTVYLQMNSLKPEDTAVFYCAADSFPSEFDYWGQGTQVTVSS | low polyreactivity
8 | QVQLVESGGGLVQAGGSLRLICAASGIIFNHNAMGWYRQAPGKERELVAAITLSGGTTYYADSVKGRFTISRDNAKNTVYVQMNSLKPEDTALYYCATRSYILGWRYDYWGQGTQVTVSS | high polyreactivity
9 | QVQLVESGGGLVQAGGSLRLSCAASGFIFHTNTMGWYRQAPGKERELVAAISSGGRTNYADSVKGRFTISRDNAKNTVYLQMNSLKPEDTAVYYCAARVGSGFDSWGQGTQVTVSS | high polyreactivity
10 | QVQLVESGGGLVQAGGSLRLSCAASGSIFTRYTMGWDRQAPRKERELVATNSSRGDGTYYADSVKGRFTISRDNAKNTVYLQMNSLKPEDTAVYYCSARYRRVLSGYGYWGHGTQVTVSS | high polyreactivity
11 | QVQLVESGGGLVQAGGSLRLSCAASGSTFYRYAMGWYRQAPGKERELVAAISYRGGSTYYADSVKGRFTISRDNAKNTVYLQMNSLKPEDTAVYYCNKRSTRRYDYWGQGTQETVSS | high polyreactivity
12 | QVQLVESGGGLVQAGGSLRLSCAASGITFFAYAMGWYRQAPGKERELVAAISTDGGSTYYADSVKGRFTISRDNAKNTVYLQMNSLKPEDTAVYYCAAKQRYVRTRGMDYWGQGTQVTVSS | high polyreactivity
13 | QVQLQESGGGLVQAGGSLRLSCAASGPISRRSTMGWNRQAPGKERELVTAITRGTNTNYADSVKGRFTISRDNAKNTEYLQMNSLKPVDTAVYYCAAYGVLKPSRGDAVFHRYWGQGTQVTVSS | low polyreactivity
14 | QVQLVESGGGLVQAGGSLRLSCAASGITFYGYAMAWYRQAPGKERELVATITSGGSTYYADSVKGRFTISRDNAKNTVYLQMNSLKPEDTAVYYCAASRWYRRTRYGYWGQGTQVTVSS | high polyreactivity
15 | QVQLVESGGGLVQAGGSLRLSCAASGSTLRGNAMGWYRQAPGKERELVAAISWSGGITYYADSVKGRFTISRDNAKNTVYLQMNSLKPEDTAVYYCAVDRPRGGPTKYERRTKHGYWGQGTQVTVSS | low polyreactivity
16 | QVQLVESRRGLVQAGGSLRLSCAASGFTFYIYAMGWYRQAPGKERELVAAIIFRGGSTYYADSVKGRFTISRDNAKNTVYLQMNSLKREDTAVYYCAAVPRTYSGYYYWGHGTQVTVSS | high polyreactivity
17 | QVQHVESGGGLVQAGGSLRLSCAASGSIFRKNAMGWYRQAPGKERELVAAISSGGGGTYYADSVKGRFTISRDNAKNTVYLQMNSLKPEDTAVFYCNKREGKGGNTKYDYWGQGTQVTVSS | low polyreactivity
18 | QVQLEESGGGLVQAGGSLRLSCAASGSTFLQYPMGWYRQATGKQRELVAAISWRAGSTYYADSVKGRFTISRDTAKNTVYLQMNTLKPEDTAVNYCDADGNRWRYELDDYDYWGQGTQVTGSS | low polyreactivity
19 | QVQLLESGGGLVQARGSLRLSCAASGSIFTYYAMGWYRQAPGIEREFVAAISRRGGSTYYADSVKGRFTISRDNAKNTVYLQMNSLKAVDTAVYYCAKDPSFTRGYKEGGGYDYWGQGTQVTVSS | high polyreactivity
20 | QVQLVESGGGLVQAGGSLRLSCAASGLTFGVNAMGWSRQAPGKERELVAAISGSGGRTNYADSVKGRFTISRDNAKNTVYLQMNSLKPEDTAVYYCNARFPDWALSEISHSTTYGYWGQGTQVTVSS | low polyreactivity
21 | QVQLVESGVGLVQAGGSLRLSCAASGRTFPYYAMGWYRQAPGKERELVAAISRRGASTYYADSVKGRFTISRDNAKNTVYLQINSLKPEDTAVYYCNAVYRGYYSGELDYWGQGTQVTVSS | high polyreactivity
